Results: IntAct's records for PubMed 20133640

Target: ssph2_salty sspH2 (UniProt P0CE12)
Sequence (P0CE12 whole entry): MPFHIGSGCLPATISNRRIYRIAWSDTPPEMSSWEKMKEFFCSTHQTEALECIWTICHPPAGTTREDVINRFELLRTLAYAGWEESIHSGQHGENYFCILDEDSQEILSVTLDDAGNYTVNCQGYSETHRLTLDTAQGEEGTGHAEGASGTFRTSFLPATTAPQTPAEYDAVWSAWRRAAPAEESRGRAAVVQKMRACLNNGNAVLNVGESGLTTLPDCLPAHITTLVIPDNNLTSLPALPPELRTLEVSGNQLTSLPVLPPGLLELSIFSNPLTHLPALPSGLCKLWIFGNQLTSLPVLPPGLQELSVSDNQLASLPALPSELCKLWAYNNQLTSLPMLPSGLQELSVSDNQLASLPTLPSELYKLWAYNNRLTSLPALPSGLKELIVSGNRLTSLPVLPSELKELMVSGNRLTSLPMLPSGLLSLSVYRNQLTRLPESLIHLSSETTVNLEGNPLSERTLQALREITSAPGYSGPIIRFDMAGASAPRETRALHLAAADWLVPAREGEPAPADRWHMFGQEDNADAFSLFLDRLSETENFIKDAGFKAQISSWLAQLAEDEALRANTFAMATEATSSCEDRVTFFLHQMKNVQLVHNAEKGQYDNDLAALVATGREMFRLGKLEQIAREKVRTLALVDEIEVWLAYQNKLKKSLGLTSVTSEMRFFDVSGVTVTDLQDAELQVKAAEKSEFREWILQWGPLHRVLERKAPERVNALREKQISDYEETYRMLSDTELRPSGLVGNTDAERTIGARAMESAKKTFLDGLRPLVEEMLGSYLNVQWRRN

Chain of Ubiquitin-conjugating enzyme E2 D3 (Homo sapiens), P61077 A96D (P61077 whole entry A96D): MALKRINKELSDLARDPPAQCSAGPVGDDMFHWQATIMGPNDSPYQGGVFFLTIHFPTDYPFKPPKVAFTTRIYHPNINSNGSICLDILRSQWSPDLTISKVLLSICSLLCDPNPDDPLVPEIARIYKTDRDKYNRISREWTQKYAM

Ubiquitin-conjugating enzyme E2 D3 (Homo sapiens), P61077 A96D
effect of a mutation on the interaction: decreasing interaction
